Literature values, collected in publication PMC9456110.
Read-outs that look alike come from different tables or passages of the source. Each block holds one substance with its values, some of them ahead of it.

Legend:
PIP (Homo sapiens) = PIP (Homo sapiens) (UniProt P12273)
[1] = target: Calmodulin (Homo sapiens) (UniProt P0DP23)
[2] = target: Calmodulin (Homo sapiens) (UniProt P0DP23); remark: listed apart in the source
[3] = target: Calmodulin (Homo sapiens) (UniProt P0DP23); remark: listed apart in the source
[4] = target: Calmodulin (Homo sapiens) (UniProt P0DP23); remark: listed apart in the source
[5] = target: Calmodulin (Homo sapiens) (UniProt P0DP23); remark: listed apart in the source

Chain of UniProt P12273 (P12273 29-146): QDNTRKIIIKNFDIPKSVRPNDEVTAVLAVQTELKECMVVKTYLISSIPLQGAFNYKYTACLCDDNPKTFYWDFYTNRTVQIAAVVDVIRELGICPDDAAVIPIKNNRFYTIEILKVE

Substance: AQP4 C-terminus (from UniProt P55087)
Kd [1]: 3600 nM

Substance: AQP6 N-terminus (from UniProt Q13520)
Kd [2]: 1780 nM

Substance: AQP6 N-terminus (from UniProt Q8C4A0)
Kd [3]: 790 nM

More lines, now with the values ahead:

Kd (PIP (Homo sapiens)): 570 nM
Substance: AQP5 C-terminus (from UniProt P55064)

Kd [4]: 3400 nM
Substance: AQP4 N-terminus (from UniProt P55087)

Kd [5]: 29000 nM
Substance: AQP4 (from UniProt P55087)
